This is an account of results in paper PMC10055104, “Organic Anion Transporting Polypeptide 3A1 (OATP3A1)-Gated Bio-Orthogonal Labeling of Intracellular Proteins” (Molecules, 2023).

The target of one series is T1, OATP3A1 (Homo sapiens, UniProt Q9UIG8).
T1 construct: gene SLCO3A1; full-length transporter overexpressed in HEK-293 cells by recombinant lentivirus
T1 sequence (Q9UIG8 1-710): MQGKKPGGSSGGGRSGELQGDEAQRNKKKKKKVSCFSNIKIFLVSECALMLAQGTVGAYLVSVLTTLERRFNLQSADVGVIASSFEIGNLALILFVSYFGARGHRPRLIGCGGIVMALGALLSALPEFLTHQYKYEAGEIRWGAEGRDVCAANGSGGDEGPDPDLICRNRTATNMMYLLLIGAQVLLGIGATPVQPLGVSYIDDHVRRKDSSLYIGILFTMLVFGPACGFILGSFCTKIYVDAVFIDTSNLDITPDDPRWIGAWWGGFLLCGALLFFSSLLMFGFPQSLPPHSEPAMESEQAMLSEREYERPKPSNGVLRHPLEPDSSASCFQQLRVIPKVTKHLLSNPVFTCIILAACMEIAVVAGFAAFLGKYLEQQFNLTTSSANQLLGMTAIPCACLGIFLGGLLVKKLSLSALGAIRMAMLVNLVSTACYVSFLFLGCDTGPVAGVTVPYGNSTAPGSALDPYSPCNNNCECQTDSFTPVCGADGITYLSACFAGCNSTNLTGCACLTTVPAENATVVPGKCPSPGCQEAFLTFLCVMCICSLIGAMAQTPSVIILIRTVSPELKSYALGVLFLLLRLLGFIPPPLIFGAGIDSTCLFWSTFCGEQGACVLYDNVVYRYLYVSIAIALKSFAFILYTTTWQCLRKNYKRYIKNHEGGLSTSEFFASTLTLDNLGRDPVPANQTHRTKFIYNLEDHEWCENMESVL
Nature of the series: inhibition of CBRD2-BAT and CBRD4-BAT ([…]) uptake, flow cytometry. The series is classed as cell-based. To be noted: Uptake buffer pH 5.5, 37 °C, 15 min preincubation with inhibitor. A general note: In flow cytometry, cells or beads pass a laser one at a time.

Substrate in series [1]: CCN(CC)c1ccc2cc(/C=C/c3cc[n+](CCCCCC(=O)NCc4ccc(-c5nncnn5)cc4)cc3S(=O)(=O)[O-])c(=O)oc2c1
Briefly: flow cytometry uptake into HEK-293-OATP3A1 cells, normalised to mock cells, Michaelis-Menten fit. The series is classed as cell-based, Homo sapiens. The note with it: Uptake buffer pH 5.5, 37 °C, 15 min, transport.

Substrate in series [2]: CN(C)c1ccc(/C=C/c2cc[n+](CCCCCC(=O)NCc3ccc(-c4nncnn4)cc3)cc2S(=O)(=O)[O-])cc1
Described as above. It is filed as cell-based, Homo sapiens. To be noted: Uptake buffer pH 5.5, 37 °C, 15 min, transport.

Consider `CCc1oc2ccccc2c1C(=O)c1cc(Br)c(O)c(Br)c1` [benzbromarone], for which the “% decrease of transport at 20 μM” value at OATP3A1 is listed as ~ 90%.

B1: OATP3A1 (Homo sapiens) (protein)
chain: T1 sequence (Q9UIG8 1-710)
notes: full-length transporter overexpressed in HEK-293 cells by recombinant lentivirus
As to B1, the Km (as a rule, the substrate concentration at which the rate is half of its maximum) was determined as 7.2 µM in series [1] and 45 µM in series [2].
